In paper PMC11557873 (Nature Communications, 2024):
Numbering of substitutions follows the chain as printed. Names may count otherwise.

T1: hgp130.hFc (human gp130 aa E23-E619 with a hFc tag) (human, UniProt P40189 23-619)
T1 sequence: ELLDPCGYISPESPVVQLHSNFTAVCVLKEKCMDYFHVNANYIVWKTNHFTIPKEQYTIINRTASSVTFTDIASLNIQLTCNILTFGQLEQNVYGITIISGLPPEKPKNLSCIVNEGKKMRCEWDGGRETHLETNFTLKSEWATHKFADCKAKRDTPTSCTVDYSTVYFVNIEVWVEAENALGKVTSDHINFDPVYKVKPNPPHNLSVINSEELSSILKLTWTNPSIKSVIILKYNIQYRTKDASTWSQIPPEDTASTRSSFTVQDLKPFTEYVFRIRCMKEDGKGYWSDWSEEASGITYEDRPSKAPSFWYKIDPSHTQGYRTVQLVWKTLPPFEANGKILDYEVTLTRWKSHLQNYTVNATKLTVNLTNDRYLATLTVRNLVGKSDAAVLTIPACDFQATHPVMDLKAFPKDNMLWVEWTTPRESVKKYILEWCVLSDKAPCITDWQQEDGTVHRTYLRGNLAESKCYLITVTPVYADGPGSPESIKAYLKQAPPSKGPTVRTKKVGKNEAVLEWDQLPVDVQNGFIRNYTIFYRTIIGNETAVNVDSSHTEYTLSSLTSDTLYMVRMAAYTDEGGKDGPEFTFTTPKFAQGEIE

B1: short form hOSM variant Δ(A26-E34)/C152S (aa Y35-R221) (ligand)
chain: YRVLLGQLQKQTDLMQDTSRLLDPYIRIQGLDVPKLREHCRERPGAFPSEETLRGLGRRGFLQTLNATLGCVLHRLADLEQRLPKAQDLERSGLNIEDLEKLQMARPNILGLRNNIYSMAQLLDNSDTAEPTKAGRGASQPPTPTPASDAFQRKLEGCRFLHGYHRFMHSVGRVFSKWGESPNRSRR
B2: short form hOSM WT (hOSM_short, aa A26-R221), C-terminal myc-myc-His (ligand)
chain: AAIGSCSKEYRVLLGQLQKQTDLMQDTSRLLDPYIRIQGLDVPKLREHCRERPGAFPSEETLRGLGRRGFLQTLNATLGCVLHRLADLEQRLPKAQDLERSGLNIEDLEKLQMARPNILGLRNNIYCMAQLLDNSDTAEPTKAGRGASQPPTPTPASDAFQRKLEGCRFLHGYHRFMHSVGRVFSKWGESPNRSRR
B3: short form hOSM mutant V37R (ligand)
chain: B2 chain with V12R
B4: short form hOSM variant C31S/C152S (ligand)
chain: B2 chain with C6S, C127S

Biological target: T1, hgp130.hFc (human gp130 aa E23-E619 …)
Assay: SPR

Binder | Kd | binding result
B1 | 40.9 nM | 
B2 | 8.58 nM | 
B3 |  | binds
B4 | 69 nM | 
